Columns and labels:
[1] = system: T1, GST-NIP45 fusion protein (bacterially expressed, full length NIP45)
T1 sequence: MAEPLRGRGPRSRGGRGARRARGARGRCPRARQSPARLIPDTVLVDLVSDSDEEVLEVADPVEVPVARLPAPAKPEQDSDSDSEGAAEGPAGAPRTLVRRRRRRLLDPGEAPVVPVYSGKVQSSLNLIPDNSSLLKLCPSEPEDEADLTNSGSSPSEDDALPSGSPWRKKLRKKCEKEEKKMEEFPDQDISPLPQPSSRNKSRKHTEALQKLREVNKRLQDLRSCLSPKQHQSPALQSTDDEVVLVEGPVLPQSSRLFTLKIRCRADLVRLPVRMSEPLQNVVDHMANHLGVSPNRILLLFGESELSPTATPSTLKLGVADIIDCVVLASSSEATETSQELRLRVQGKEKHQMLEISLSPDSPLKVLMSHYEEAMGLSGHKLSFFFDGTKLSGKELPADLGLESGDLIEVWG

| Substance | in vitro methylation assay with affinity purified PRMTs and GST-NIP45 [1] | in vitro methylation assay with recombinant proteins (Histone H3) |
| --- | --- | --- |
| Flag epitope tagged CARM1 immunoprecipitated from 293 cell extracts | In this assay, only PRMT1 was capable of methylating NIP45 | – |
| Flag epitope tagged PRMT3 immunoprecipitated from 293 cell extracts | In this assay, only PRMT1 was capable of methylating NIP45 | – |
| Flag epitope tagged PRMT5 immunoprecipitated from 293 cell extracts | In this assay, only PRMT1 was capable of methylating NIP45 | – |
| GST-CARM1 | – | CARM1 did methylate histone H3 (lane 7) |

Reference: US20090048117
